Values quoted from earlier work as cited in article PMC11076006.

Target: TLR4 (Homo sapiens) (UniProt O00206)
UniProt O00206, sequence (O00206 24-839): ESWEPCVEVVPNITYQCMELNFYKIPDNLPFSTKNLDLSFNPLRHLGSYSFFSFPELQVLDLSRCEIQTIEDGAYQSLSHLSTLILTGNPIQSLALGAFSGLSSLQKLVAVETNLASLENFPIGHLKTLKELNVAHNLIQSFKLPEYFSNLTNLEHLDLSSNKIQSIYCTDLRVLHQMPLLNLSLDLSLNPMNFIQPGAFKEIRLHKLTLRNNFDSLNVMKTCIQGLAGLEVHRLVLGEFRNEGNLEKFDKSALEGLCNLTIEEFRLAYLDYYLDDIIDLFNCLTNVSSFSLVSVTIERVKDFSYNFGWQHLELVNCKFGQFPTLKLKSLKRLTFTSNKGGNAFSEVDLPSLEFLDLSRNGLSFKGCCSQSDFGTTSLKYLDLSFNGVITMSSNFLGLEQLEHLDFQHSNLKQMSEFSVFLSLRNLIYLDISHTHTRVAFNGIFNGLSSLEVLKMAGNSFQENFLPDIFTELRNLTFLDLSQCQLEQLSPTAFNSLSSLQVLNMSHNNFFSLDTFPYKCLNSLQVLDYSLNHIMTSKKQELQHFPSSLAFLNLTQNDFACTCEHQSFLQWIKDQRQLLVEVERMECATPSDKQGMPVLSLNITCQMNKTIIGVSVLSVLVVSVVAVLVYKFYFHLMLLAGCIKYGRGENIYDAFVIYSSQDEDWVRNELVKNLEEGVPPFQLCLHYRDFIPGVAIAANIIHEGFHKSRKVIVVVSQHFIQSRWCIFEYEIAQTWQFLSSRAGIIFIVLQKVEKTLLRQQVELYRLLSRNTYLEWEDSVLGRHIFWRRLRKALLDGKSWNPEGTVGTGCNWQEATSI

Substance: S100A9 (from UniProt P06702)
- Kd: 3.2 nM
